Laboratory results reported in patent US20070286806A1, “Methods and Compositions for Modulating a Steroid Receptor” (Mount Sinai Hospital, priority 2004, published 2007).
Residues, ends and D or L forms follow the SMILES beside them. *: point of attachment. Cbz = O=C(OCc1ccccc1)*

T1: His-PSF (6xHis-tagged full length human PSF, amino acid 1-707) (human, UniProt P23246 1-707)
T1 construct: Expressed in 293T or SHM cells (co-immunoprecipitation, reporter assays) or translated in rabbit reticulocyte lysate with ^35S methionine (GST pulldown); 1 only as 'e.g.' of wild type PSF; also called His tagged PSF; His tagged PSF1-707; not shown: N-terminal 6xHis tag of vector pcDNA3.1 6xHis
T1 sequence: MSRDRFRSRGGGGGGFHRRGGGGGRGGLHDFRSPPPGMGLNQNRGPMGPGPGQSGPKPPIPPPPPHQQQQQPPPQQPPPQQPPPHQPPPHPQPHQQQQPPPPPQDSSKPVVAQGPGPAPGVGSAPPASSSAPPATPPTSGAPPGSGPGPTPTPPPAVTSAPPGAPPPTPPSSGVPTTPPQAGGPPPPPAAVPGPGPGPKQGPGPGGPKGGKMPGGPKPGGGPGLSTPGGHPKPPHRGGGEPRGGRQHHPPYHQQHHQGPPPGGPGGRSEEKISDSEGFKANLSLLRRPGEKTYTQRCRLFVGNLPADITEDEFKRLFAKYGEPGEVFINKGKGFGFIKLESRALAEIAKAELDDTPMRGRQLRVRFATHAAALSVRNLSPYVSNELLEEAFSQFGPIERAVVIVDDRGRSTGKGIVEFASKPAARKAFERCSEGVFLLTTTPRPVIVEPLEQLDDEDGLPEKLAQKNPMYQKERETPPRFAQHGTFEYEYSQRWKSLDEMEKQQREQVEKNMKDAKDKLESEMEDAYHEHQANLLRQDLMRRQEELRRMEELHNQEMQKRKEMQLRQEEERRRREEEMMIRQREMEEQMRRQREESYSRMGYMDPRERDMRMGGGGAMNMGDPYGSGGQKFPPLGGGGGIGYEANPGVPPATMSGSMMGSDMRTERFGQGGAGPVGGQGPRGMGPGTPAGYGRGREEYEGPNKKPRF

B1: GST-PR fusion protein, amino acids 456-556 of PRB (other)
chain: STLECILYKAEGAPPQQGPFAPPPCKAPGASGCLLPRDGLPSTSASAAAAGAAPALYPALGLNGLPQLGYQAAVLKEGLPQVYPPYLNYLRPDSEASQSPQ
notes: also called other segments of PR; not shown: glutathione-S-transferase (GST) of vector pGEX 5X-2
B2: GST-PR fusion protein, amino acids 650-933 of PRB (other)
chain: ALDAVALPQPLGVPNESQALSQRFTFSPGQDIQLIPPLINLLMSIEPDVIYAGHDNTKPDTSSSLLTSLNQLGERQLLSVVKWSKSLPGFRNLHIDDQITLIQYSWMSLMVFGLGWRSYKHVSGQMLYFAPDLILNEQRMKESSFYSLCLTMWQIPQEFVKLQVSQEEFLCMKVLLLLNTIPLEGLRSQTQFEEMRSSYIRELIKAIGLRQKGVVSSSQRFYQLTKLLDNLHDLVKQLHLYCLNTFIQSRALSVEFPEMMSEVIAAQLPKILAGMVKPLLFHKK
notes: as for B1
B3: PSF-1-662: truncated form of PSF, amino acids 1-662 (protein, UniProt P23246 1-662, looked up, fragment)
chain: MSRDRFRSRGGGGGGFHRRGGGGGRGGLHDFRSPPPGMGLNQNRGPMGPGPGQSGPKPPIPPPPPHQQQQQPPPQQPPPQQPPPHQPPPHPQPHQQQQPPPPPQDSSKPVVAQGPGPAPGVGSAPPASSSAPPATPPTSGAPPGSGPGPTPTPPPAVTSAPPGAPPPTPPSSGVPTTPPQAGGPPPPPAAVPGPGPGPKQGPGPGGPKGGKMPGGPKPGGGPGLSTPGGHPKPPHRGGGEPRGGRQHHPPYHQQHHQGPPPGGPGGRSEEKISDSEGFKANLSLLRRPGEKTYTQRCRLFVGNLPADITEDEFKRLFAKYGEPGEVFINKGKGFGFIKLESRALAEIAKAELDDTPMRGRQLRVRFATHAAALSVRNLSPYVSNELLEEAFSQFGPIERAVVIVDDRGRSTGKGIVEFASKPAARKAFERCSEGVFLLTTTPRPVIVEPLEQLDDEDGLPEKLAQKNPMYQKERETPPRFAQHGTFEYEYSQRWKSLDEMEKQQREQVEKNMKDAKDKLESEMEDAYHEHQANLLRQDLMRRQEELRRMEELHNQEMQKRKEMQLRQEEERRRREEEMMIRQREMEEQMRRQREESYSRMGYMDPRERDMRMGGGGAMNMGDPYGSGGQKFPPLGGGGGIGYEANPGVPPATMSGSMMGSDM
B4: GST-PR fusion protein, amino acids 164-456 of PRB (other)
chain: LMSRSGCKVGDSSGTAAAHKVLPRGLSPARQLLLPASESPHWSGAPVKPSPQAAAVEVEEEDSSESEESAGPLLKGKPRALGGAAAGGGAAACPPGAAAGGVALVPKEDSRFSAPRVALVEQDAPMAPGRSPLATTVMDFIHVPILPLNHALLAARTRQLLEDESYDGGAGAASAFAPPRTSPCASSTPVAVGDFPDCAYPPDAEPKDDAYPLYSDFQPPALKIKEEEEGAEASARSPRSYLVAGANPAAFPDFPLGPPPPLPPRATPSRPGEAAVTAAPASASVSSASSSGS
notes: as for B1

Assays:
[1] = tested on: PRA and PRB protein; assay: PR protein level by western blot of whole cell lysate after co-transfection in SHM cells; type: cell-based
Procedure: FIG. 5. […] (A) SHM cells were transient transfected (eighteen hours) with PRA or PRB expression vector with or without increasing doses (0.2, 0.5, 1.0 and 2.0 μg) of His-PSF vector as indicated. Whole cell lysate was analyzed by western blot with PR or His tag antibody. NS=non-specific binding. (B) SHM cells were transient transfected (eighteen hours) with PRA or PRB expression vector together with 2.0 μg His tagged PSF1-707 or truncated PSF1-662. Culture media was added with or without 60 nM MG132 (Z-Leu-Leu-Leu-a1) as indicated for another 6 hours. Whole cell lysate was analyzed by western blot with PR or His tag antibody. Gβ protein was also detected as the cell lysate loading control.
For immunoprecipitation of the endogenous PR and PSF, T47D cells cultured in 150 mm dishes were lysed in 800 μl NETN buffer containing 150 mM NaCl plus protease inhibitor cocktail. Cell lysate were then incubated with 5 μg of PR or PSF, or control mouse IgG at 4° C. overnight, followed by the addition of 30 μl of protein A/G PLUS-agarose beads (Santa Cruz) for another two hours at 4° C. Resins were washed with NETN containing 250 mM NaCl and eluted with 1×Laemmli buffer. The eluted proteins along with the whole cell extract were western blotted by PR or PSF antibody. • GST pulldown assay: GST pulldown assay was performed as previously described (20). GST and its fusion proteins were first immobilized to glutathione-Sepharose 4B affinity matrix. The matrix was then incubated at 4° C. overnight with rabbit reticulocyte lysate (Promega) containing PR or His-PSF transcribed and translated in presence of ^35S methionine. The matrix was washed three times with cold NETN buffer before adding 1 ×Laemmli buffer to elute associated proteins. The eluted proteins were separated on 10% SDS-PAGE gel. Gels were treated with Enhancer (NEN, Boston, US) dried and analyzed by autoradiography. • Cell culture and transient transfection: SHM cells and 293T cells were maintained in DMEM plus 5% FCS (Sigma) as described before (22). For experiments involving steroid exposure, the medium was substituted with phenol red free DMEM containing 5% charcoal-treated fetal bovine serum (Hyclone, Utah, USA). Transfection was performed according to manufacturers protocol (Fementas). Cells were seeded at a density to achieve 60-80% confluency the following day. The DNA and transfection reagent were mixed and added to the medium. Cell lysates were collected at least 30 hours after transfection. For luciferase assay, cells were collected in 200 μl of lysis buffer (Promega) of which 10μl was used for the luciferase and β-Gal activity assays respectively. Luciferase activity was determined by using the luciferin reagent (Promega) according to manufacture's protocol. […]

[2] = tested on: PR protein; assay: PR protein levels on over-expression of PSF in 293T cells; type: cell-based; settings: 293T cells
[3] = molecular target: T1, His-PSF (6xHis-tagged full length human …); assay: GST pulldown of ^35S-labeled PSF, autoradiography
Procedure: Bands were excised, reduced, allcylated and digested in-gel with trypsin as described (21). Tryptic peptides were extracted from the gel, desalted using ZipTip desalting columns (Millipore, Bedford, Mass.), equilibrated in 5% formic acid, washed with equilibration buffer and eluted in a solution of 5% formic acid and 60% methanol. Tandem mass spectrometry analysis was performed by using a nano-electrospray ionization (ESI) source (Protana A/S) coupled to a high-performance hybrid quadrapole time-of-flight API QSTARTM Pulsar mass spectrometer (MDS-Sciex, Concord, ON, Canada). After tryptic ion candidates were identified, product ion spectra were generated by collision-induced dissociation. For product ion scans, the collision energy was determined experimentally. Sequence and mass information of the peptides was used to screen the NRDB and dbEST databases. Databases were searched using the Mascot MS/MS search engine (Matrix Science, London, UK). […] Cells were plated at 150 mm diameter dish and grown to 60% confluent before transfection. Total of 15 μg plasmid was transfected by Exgen 500 (Fermantas). Eighteen hours after transfection, cells were washed two times ice-cold phosphate-buffered saline (PBS) then lysed in NETN buffer plus protease inhibitor cocktail. Protein concentration of the whole cell lysate (WCL) was determined by the Bradford assay and the WCL was diluted to 1 mg/ml in NETN. A 900 μl aliquot of WCL was incubated for overnight at 4° C. in suspension with either anti-His tag or anti-PR antibody, followed by the addition of 30 μl of protein A/G PLUS-agarose beads (Santa Cruz) for another two hours at 4° C. Resins were washed with NETN and eluted with 1×Laemmli buffer, boiled, and centrifuged. The supernatant was separated by SDS- 8% PAGE, electrophoresed to PVDF membrane, and visualized by ECL.

Row | Molecule | binding result [3] | also measured
1 | CC(C)C[C@@H](C=O)NC(=O)[C@H](CC(C)C)NC(=O)[C@H](CC(C)C)NC(=O)OCc1ccccc1 [MG132, Z-Leu-Leu-Leu-a1, reference compound] (Cbz-Leu-Leu-Leu-aldehyde) | – | effect on PSF-induced loss of PR protein ([1]; final concentration of 60 μM for an additional 6 hours): block the loss of PR protein; effect on PSF-induced reduction of PR protein levels [2]: rescued
2 | B1 | no binding | –
3 | B2 | no binding | –
4 | B3 | – | PR proteins after co-transfection with PRB/PRA ([1]; after 24 hours): total loss of PR proteins
5 | B4 | no binding | –
